Results: patent US20160177307

Assays:
Experiment in all cases: filter
[1] = test system: T1, VEGF-165 (Homo sapiens), P15692-4
T1 sequence: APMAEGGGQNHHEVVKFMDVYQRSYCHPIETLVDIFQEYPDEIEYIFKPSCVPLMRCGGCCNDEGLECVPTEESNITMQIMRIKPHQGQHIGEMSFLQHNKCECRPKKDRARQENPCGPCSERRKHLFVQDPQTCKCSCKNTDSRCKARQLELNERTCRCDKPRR

[2] = test system: T2, VEGF-121 (Homo sapiens), P15692-9
T2 sequence: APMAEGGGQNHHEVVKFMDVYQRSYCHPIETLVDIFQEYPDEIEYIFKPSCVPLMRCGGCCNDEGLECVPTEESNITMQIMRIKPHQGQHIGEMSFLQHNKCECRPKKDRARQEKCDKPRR

[3] = test system: T3, VEGF-164 (Rattus norvegicus), P16612-2; conditions: P=Nap-dU
T3 sequence: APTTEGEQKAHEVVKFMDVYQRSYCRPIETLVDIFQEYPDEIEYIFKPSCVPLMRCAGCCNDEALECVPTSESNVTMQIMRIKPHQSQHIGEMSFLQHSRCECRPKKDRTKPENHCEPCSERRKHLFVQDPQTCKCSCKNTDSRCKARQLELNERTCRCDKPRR

[4] = target: PDGF-BB (platelet-derived growth factor BB) (Homo sapiens) (UniProt P01127); conditions: 2'-OMe
[5] = Nap-dU, Bn-dU, MBn-dU, 2'-OMe, C3, 1 Heg between parts
[6] = Nap-dU, Bn-dU, MBn-dU, 2'-OMe, C3, 2 Heg between parts
[7] = Nap-dU, Bn-dU, MBn-dU, 2'-OMe, C3, 3 Heg between parts
[8] = Nap-dU, Bn-dU, MBn-dU, 2'-OMe, C3, 4 Heg between parts

Chain of PDGF-BB (platelet-derived growth factor BB) (Homo sapiens) (P01127 82-190): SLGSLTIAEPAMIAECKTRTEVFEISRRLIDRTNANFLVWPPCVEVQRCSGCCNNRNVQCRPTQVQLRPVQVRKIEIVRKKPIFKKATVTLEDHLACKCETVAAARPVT

Sequence	Kd ([1]; P=Nap-dU) [nM]	Kd ([2]; P=Nap-dU) [nM]	Kd [3] [nM]	further results
AATCAGCCGTTCAAGTGCTTGTAGGATTTAAATGGA [4867-31_39]	0.2	0.62	0.09	
AATCAGCCGTTCAAGTGCTTGTAGGATTTAAATGGAA [4867-31_33]	0.11	0.55	0.04	
AATCAGCCGTTCAAGTGCTTGTAGGATTTAAATGGAAT [4867-31_27]	0.11	0.59	0.07	
AGCCGTTCAAGTGCTTGTAGGATTTAAAT [4867-31_53]				Kd ([1]; NapdU at P): 3.2 nM; Kd ([2]; NapdU at P): 19 nM
AGCCGTTCAAGTGCTTGTAGGATTTAAATG [4867-31_52]			0.58	Kd ([1]; NapdU at P): 0.17 nM; Kd ([2]; NapdU at P): 2.8 nM
AGCCGTTCAAGTGCTTGTAGGATTTAAATGGAA [4867-31_37]	0.092	0.21	0.04	
AGCCGTTCAAGTGCTTGTAGGATTTAAATGGAAT [4867-31_31]	0.17	1	0.12	
ATCAGCCGTTCAAGTGCTTGTAGGATTTAAATGGA [4867-31_40]	0.14	0.7	0.1	
ATCAGCCGTTCAAGTGCTTGTAGGATTTAAATGGAA [4867-31_34]	0.35	0.47	0.05	
ATCAGCCGTTCAAGTGCTTGTAGGATTTAAATGGAAT [4867-31_28]	0.1	0.97	0.07	
CAATCAGCCGTTCAAGTGCTTGTAGGATTTAAATGGA [4867-31_38]	0.17	0.81	0.09	
CAATCAGCCGTTCAAGTGCTTGTAGGATTTAAATGGAA [4867-31_32]	0.1	0.51	0.06	
CAATCAGCCGTTCAAGTGCTTGTAGGATTTAAATGGAAT [4867-31_26]		0.49	0.07	Kd ([1]; P=Nap-dU, SB18T, 37 C): 0.075 nM
CAGCCGTTCAAGTGCTTGTAGGATTTAA [4867-31_48]			142	
CAGCCGTTCAAGTGCTTGTAGGATTTAAATG [4867-31_45]			4.5	Kd ([1]; NapdU at P): 1.1 nM; Kd ([2]; NapdU at P): 3.3 nM
CAGCCGTTCAAGTGCTTGTAGGATTTAAATGG [4867-31_44]			0.38	Kd ([1]; NapdU at P): 0.13 nM; Kd ([2]; NapdU at P): 0.14 nM
CAGCCGTTCAAGTGCTTGTAGGATTTAAATGGAA [4867-31_36]	0.11	0.39	0.06	
CAGCCGTTCAAGTGCTTGTAGGATTTAAATGGAAT [4867-31_30]	0.2	1.4	0.15	
CCGTTCAAGTGCTTGTAGGATTTAAATGGA [4867-31_59]			0.2	Kd ([1]; NapdU at P): 0.16 nM; Kd ([2]; NapdU at P): 0.14 nM
CCGTTCAAGTGCTTGTAGGATTTAAATGGCGACAGCATGTATGCACATCT [5169-4_95]				Kd ([2]; VEGF-4Heg-PDGF, NapdU, 2'-OMe): 0.043 nM; Kd ([4]; VEGF-4Heg-PDGF, NapdU): 1.2 pM
CCGTTCAAGTGCTTGTAGGATTTAAATGGCGACAGCATGTATGCACATCT [5169-4_96]				Kd ([2]; VEGF-3Heg-PDGF, NapdU, 2'-OMe): 0.076 nM; Kd ([4]; VEGF-3Heg-PDGF, NapdU): 4.5 pM
CCGTTCAAGTGCTTGTAGGATTTAAATGGCGACAGCATGTATGCACATCT [5169-4_97]				Kd ([2]; VEGF-2Heg-PDGF, NapdU, 2'-OMe): 0.1 nM; Kd ([4]; VEGF-2Heg-PDGF, NapdU): 3.7 pM
CCGTTCAAGTGCTTGTAGGATTTAAATGGCGACAGCATGTATGCACATCT [5169-4_98]				Kd ([2]; VEGF-1Heg-PDGF, NapdU, 2'-OMe): 0.14 nM; Kd ([4]; VEGF-1Heg-PDGF, NapdU): 5.3 pM
CCGTTCAAGTGCTTGTAGGATTTAAATGGTTACGTTACCGCGTTTATAGCG [4149-8_408]				Kd [1, 5]: 0.041 nM; Kd [2, 5]: 0.044 nM; Kd ([4]; Nap-dU, Bn-dU, MBn-dU, C3, 1 Heg between parts): 43 pM
CCGTTCAAGTGCTTGTAGGATTTAAATGGTTACGTTACCGCGTTTATAGCG [4149-8_409]				Kd [1, 6]: 0.029 nM; Kd [2, 6]: 0.026 nM; Kd ([4]; Nap-dU, Bn-dU, MBn-dU, C3, 2 Heg between parts): 600 pM
CCGTTCAAGTGCTTGTAGGATTTAAATGGTTACGTTACCGCGTTTATAGCG [4149-8_410]				Kd [1, 7]: 0.033 nM; Kd [2, 7]: 0.026 nM; Kd ([4]; Nap-dU, Bn-dU, MBn-dU, C3, 3 Heg between parts): 20 pM
CCGTTCAAGTGCTTGTAGGATTTAAATGGTTACGTTACCGCGTTTATAGCG [4149-8_411]				Kd [1, 8]: 0.045 nM; Kd [2, 8]: 0.02 nM; Kd ([4]; Nap-dU, Bn-dU, MBn-dU, C3, 4 Heg between parts): 7.2 pM
